Experimental data reported in the RNAGym collection of RNA variant scans (doi:10.7554/elife.80360).

B1: HDV Ribozyme (parent)
chain: GGCCGGCAUGGUCCCAGCCUCCUCGCUGGCGCCGGCUGGGCAACAUUCCGAGGGGACCGUCCCCUCGGUAAUGGCGAAUGGGACCCA

Variants of: B1
Experiment: self-cleavage, relative activity (ratio to wild type); higher = more cleavage; co-transcriptional

Row | Variant | self-cleavage
1 | GGCCGGCAUGGUCCCAGCGUCCUCGCUGGCGCCGGCUGGGCAACCUUCCGAGGGGACCGUCCCCUCGGUAAUGGCGAAUGGGACCCA | 0.0583
2 | GGCCGGCAUGGUCCCAGCGUCCUCGCUGGCGCCGGCUGGGCAACUUUCCGAGGGGACCGUCCCCUCGGUAAUGGCGAAUGGGACCCA | 0.0396
3 | GGCCGGCAUGGUCCCAGCGUCCUCGCUGGCGCCGGCUGGGCAACAUUCCGCGGGGACCGUCCCCUCGGUAAUGGCGAAUGGGACCCA | 0.0369
4 | GGCCGGCAUGGUCCCAGCGUCCUCGCUGGCGCCGGCUGGGCAACAUUCCGGGGGGACCGUCCCCUCGGUAAUGGCGAAUGGGACCCA | 0.0361
5 | GGCCGGCAUGGUCCCAGCGUCCUCGCUGGCCCCGGCUGGGCAACAUUCCGAGGGGACCGUCCCCUCGGUAAUGGCGAAUGGGACCCA | 0.104
6 | GGCCGGCAUGGUCCCAGCGUCCUCGCUGGCGUCGGCUGGGCAACAUUCCGAGGGGACCGUCCCCUCGGUAAUGGCGAAUGGGACCCA | 0.0302
7 | GGCCGGCAUGGUCCCAGCGUCCUCGCUGGCGCCGGCUGGGCAACAUUCCGAGGGGACCGUCCCCUCGGUAAUGGGGAAUGGGACCCA | 0.032
8 | GGCCGGCAUGGUCCCAGCGUCCUCGCUGGCGCCGGCUGGGCAACAUUCCGAGGGGACUGUCCCCUCGGUAAUGGCGAAUGGGACCCA | 0.0272
9 | GGCCGGCAUGGUCCCAGCGUCCUCGCUGGCGCCGGCUGGGCAACAUUCCGAGGGGACAGUCCCCUCGGUAAUGGCGAAUGGGACCCA | 0.0256
10 | GGCCGGCAUGGUCCCAGCGUCAUCGCUGGCGCCGGCUGGGCAACAUUCCGAGGGGACCGUCCCCUCGGUAAUGGCGAAUGGGACCCA | 0
11 | GGCCGGCAUGGUCCCAGCGUCUUCGCUGGCGCCGGCUGGGCAACAUUCCGAGGGGACCGUCCCCUCGGUAAUGGCGAAUGGGACCCA | 0.0804
12 | GGCCGGCAUGGUCCCAGCGUCGUCGCUGGCGCCGGCUGGGCAACAUUCCGAGGGGACCGUCCCCUCGGUAAUGGCGAAUGGGACCCA | 0
13 | GGCCGGCAUGGUCCCAGCGUCCUCGCUGGCGCCGGCUGGGCAACAUUCCGAGGGGACCGUCCCCUCGGUAAUGGCGGAUGGGACCCA | 0.0426
14 | GGCCGGCAUGGUCCCAGCGUCCUCGCUGGCGCCGGCUGGGCAACAUUCCGAGGGGACCGUCCCCUCGGUAAUGGCGUAUGGGACCCA | 0.0437
15 | GGCCGGCAUGGUCCCAGCGUCCUCGCUGGCGCCGGCUGGGCAACAUUCCGAGGGGACCGUCCCCUCGGUAAUGGCGCAUGGGACCCA | 0.111
16 | GGCCGGCAUGGUCCCAGCGUCCUCGCUGGCGCCGGCUGGGCAACAUUCCGAGGGGACCGUCCCCUCGGUAAUGGCGAAUGGGAGCCA | 0.0941
17 | GGCCGGCAUGGUCCCAGCGUCCUCGCUGGCGCCGCCUGGGCAACAUUCCGAGGGGACCGUCCCCUCGGUAAUGGCGAAUGGGACCCA | 0.208
18 | GGCCGGCAUGGUCCCAGCGUCCUCGCUGGCGCCGUCUGGGCAACAUUCCGAGGGGACCGUCCCCUCGGUAAUGGCGAAUGGGACCCA | 0.119
19 | GGCCGGCAUGGUCCCAGCGUCCUCGCUGGCGCCGGCUGGGCAACAUUCCGAGGGGACCGUCACCUCGGUAAUGGCGAAUGGGACCCA | 0.0264
20 | GGCCGGCAUGGUCCCAGCGUCCUCGCUGGCGCCGGCUGGGCAACAUUCCGAGGGGACCGUCUCCUCGGUAAUGGCGAAUGGGACCCA | 0.116
21 | GGCCGGCAUGGUCCCAGCGUCCUCGCUAGCGCCGGCUGGGCAACAUUCCGAGGGGACCGUCCCCUCGGUAAUGGCGAAUGGGACCCA | 0.237
22 | GGCCGGCAUGGUCCCAGCGUCCUCGCUGGCGCUGGCUGGGCAACAUUCCGAGGGGACCGUCCCCUCGGUAAUGGCGAAUGGGACCCA | 0.151

Row | Variant | self-cleavage
23 | GGCCGGCAUGGUCCCAGCGUCCUCGCUGGCGCCGGCUGGGCAACAUUCCGAGGGGGCCGUCCCCUCGGUAAUGGCGAAUGGGACCCA | 0.0639
24 | GGCCGGCAUGGUCCCAGCGUCCUCGCUGGCGCCGGCUGGGCAACAUUCCGAGGGGUCCGUCCCCUCGGUAAUGGCGAAUGGGACCCA | 0.0573
25 | GGCCGGCAUGGUCCCAGCGUCCUCGCUGGCGCCGGCUGGGCAUCAUUCCGAGGGGACCGUCCCCUCGGUAAUGGCGAAUGGGACCCA | 0.0594
26 | GGCCGGCAUGGUCCCAGCGUCCUCGCUGGCGCCGGCUGGGCACCAUUCCGAGGGGACCGUCCCCUCGGUAAUGGCGAAUGGGACCCA | 0.0652
27 | GGCCGGCAUGGUCCCAGCGUCCUCGCUGGCGCCGGCUGGGCAACAUUCCGAGGGGACCGUCCCCUCGGUAAUGGCGAAUGGGUCCCA | 0.0504
28 | GGCCGGCAUGGUCCCAGCGUCCUCGCUGGCGCCGGCUGGGCAACAUUCCGAGGGGACCGUCCCCUCGGUAUUGGCGAAUGGGACCCA | 0
29 | GGCCGGCAUGGUCCCAGCGUCCUCGCUGGCGCCGGCUGGGCAACAUUCCGAGGGGACCGUCCCCUCGGUAGUGGCGAAUGGGACCCA | 0.158
30 | GGCCGGCAUGGUCCCAGCGUCCUCGCUGGCGCCGGCUGGGCAACAUUCCGAGGGGACCGUCCCCUAGGUAAUGGCGAAUGGGACCCA | 0.108
31 | GGCCGGCAUGGUCCCAGCGUCCUCGCUGGCGCCGGCUGGGCAACAUUCCGAGGGGACCGUCCCCUGGGUAAUGGCGAAUGGGACCCA | 0.141
32 | GGCCGGCAUGGUCCCAGCGUCCUAGCUGGCGCCGGCUGGGCAACAUUCCGAGGGGACCGUCCCCUCGGUAAUGGCGAAUGGGACCCA | 0.115
33 | GGCCGGCAUGGUCCCAGCGUCCUGGCUGGCGCCGGCUGGGCAACAUUCCGAGGGGACCGUCCCCUCGGUAAUGGCGAAUGGGACCCA | 0
34 | GGCCGGCAUGGUCCCAGCGUCCUUGCUGGCGCCGGCUGGGCAACAUUCCGAGGGGACCGUCCCCUCGGUAAUGGCGAAUGGGACCCA | 0.0339
35 | GGCCGGCAUGGUCCCAGCGUCCUCACUGGCGCCGGCUGGGCAACAUUCCGAGGGGACCGUCCCCUCGGUAAUGGCGAAUGGGACCCA | 0.113
36 | GGCCGGCAUGGUCCCAGCGUCCUCCCUGGCGCCGGCUGGGCAACAUUCCGAGGGGACCGUCCCCUCGGUAAUGGCGAAUGGGACCCA | 0.156
37 | GGCCGGCAUGGUCCCAGCGUCCUCGCUGGCGCCGGCUGGGCAACAUUCCGAGGGGACCGUGCCCUCGGUAAUGGCGAAUGGGACCCA | 0.0378
38 | GGCCGGCAUGGUCCCAGCGUCCUCGCUGGCGCCGGCUGGGCAACAUUCCGAGGGGACCGUUCCCUCGGUAAUGGCGAAUGGGACCCA | 0.0707
39 | GGCCGGCAUGGUCCCAGCGUCCUCGCUGGCGCCGGCUGGGCAACAUUCCGAGGGGACCGUCCACUCGGUAAUGGCGAAUGGGACCCA | 0.0936
40 | GGCCGGCAUGGUCCCAGCGUCCUCGCUGGCGCCGGCUGGGCAACAUUCCGAGGGGACCGUCCGCUCGGUAAUGGCGAAUGGGACCCA | 0.229
41 | GGCCGGCAUGGUCCCAGCGUCCUCGUUGGCGCCGGCUGGGCAACAUUCCGAGGGGACCGUCCCCUCGGUAAUGGCGAAUGGGACCCA | 0.249
42 | GGCCGGCAUGGUCCCAGCGUCCUCGCUGGCGCCGGCUGGGCAACAUUCCGAGGGGACCGUCCCCUCGGUAAUGGCGAAUGGGACCUA | 0.26
43 | GGCCGGCAUGGUCCCAGCGUCCUCGCUGCCGCCGGCUGGGCAACAUUCCGAGGGGACCGUCCCCUCGGUAAUGGCGAAUGGGACCCA | 0.201
44 | GGCCGGCAUGGUCCCAGCGUCCUCGCUGUCGCCGGCUGGGCAACAUUCCGAGGGGACCGUCCCCUCGGUAAUGGCGAAUGGGACCCA | 0

Row | Variant | self-cleavage
45 | GGCCGGCAUGGUCCCAGCGUCCUCGCUGACGCCGGCUGGGCAACAUUCCGAGGGGACCGUCCCCUCGGUAAUGGCGAAUGGGACCCA | 0.0378
46 | GGCCGGCAUGGUCCCAGCGUCCUCGCUGGCGCCGGCUGGGCAACAUUCCGAGGGGACCGUCCCCUCGGUAAUGGCGAGUGGGACCCA | 0.0875
47 | GGCCGGCAUGGUCCCAGCGUCCUCGCUGGCGCCGGGUGGGCAACAUUCCGAGGGGACCGUCCCCUCGGUAAUGGCGAAUGGGACCCA | 0.0264
48 | GGCCGGCAUGGUCCCAGCGUCCUCGCUGGCGCCGGCUGGGCAACAUUCCGAGGGGACCGUCCCCUCGGUAAUGGCGAAUGGGACCCG | 0.16
49 | GGCCGGCAUGGUCCCAGCGUCCUCGCUGGCGCCGGCUGGGCAACAUUCCGAGGGGACCGUCCCCUCGGUAAUGGCGAAUGGGACCCC | 0.0849
50 | GGCCGGCAUGGUCCCAGCGUCCUCGCUGGCGCCGGCUGGGCAACAUUCCGAGGGGACCGUCCCCUCGGUAAUGGCGAAUGGGACCCU | 0.0839
51 | GGCCGGCAUGGUCCCAGCGUCCUCGCUGGCGCCGGCUGGGCAACAUUCCGAGGGGAUCGUCCCCUCGGUAAUGGCGAAUGGGACCCA | 0.0528
52 | GGCCGGCAUGGUCCCAGCGUCCUCGCUGGCGCCGGCUGGGCAACAUUCCGAGGGGAACGUCCCCUCGGUAAUGGCGAAUGGGACCCA | 0.0256
53 | GGCCGGCAUGGUCCCAGCGUCCUCGCUGGCGCCGGCUGGGCAACAUUCAGAGGGGACCGUCCCCUCGGUAAUGGCGAAUGGGACCCA | 0.0354
54 | GGCCGGCAUGGUCCCAGCGUCCUCGCUGGCGCCUGCUGGGCAACAUUCCGAGGGGACCGUCCCCUCGGUAAUGGCGAAUGGGACCCA | 0.095
55 | GGCCGGCAUGGUCCCAGCGUCCUCGCUGGUGCCGGCUGGGCAACAUUCCGAGGGGACCGUCCCCUCGGUAAUGGCGAAUGGGACCCA | 0.0462
56 | GGCCGGCAUGGUCCCAGCGUCCUCGCUGGCGCCGGCUGGGCAACAUUCCGAGGGGACCGUCCCCUCGGUUAUGGCGAAUGGGACCCA | 0.102
57 | GGCCGGCAUGGUCCCAGCGUCCUCGCUGGCGCCGGCUGGGCAACAUUCCGAGGGGACCGUCCCCUCGGUGAUGGCGAAUGGGACCCA | 0.104
58 | GGCCGGCAUGGUCCCAGCGUCCUCGCUGGCGCCGGCUGGGCAACAUUCCGAGGGGACCGUCCCGUCGGUAAUGGCGAAUGGGACCCA | 0.113
59 | GGCCGGCAUGGUCCCAGCGUCCUCGCUGGCGCCGGCUGGGCAACAUUCCGAGGGGACCGUCCCUUCGGUAAUGGCGAAUGGGACCCA | 0.056
60 | GGCCGGCAUGGUCCCAGCGUCCUCGCUGGCGCCGGCUGGGCAACAUUCCGAGGGGACCGUCCCCUCGGUAAUGGCGAAUGGGACUCA | 0
61 | GGCCGGCAUGGUCCCAGCGUGCUCGCUGGCGCCGGCUGGGCAACAUUCCGAGGGGACCGUCCCCUCGGUAAUGGCGAAUGGGACCCA | 0.0326
62 | GGCCGGCAUGGUCCCAGCGUACUCGCUGGCGCCGGCUGGGCAACAUUCCGAGGGGACCGUCCCCUCGGUAAUGGCGAAUGGGACCCA | 0.208
63 | GGCCGGCAUGGUCCCAGCGUCCUCGCUGGCGCCGGCUGGGUAACAUUCCGAGGGGACCGUCCCCUCGGUAAUGGCGAAUGGGACCCA | 0.155
64 | GGCCGGCAUGGUCCCAGCGUCCUCGCUGGCGCCGGCUGGGAAACAUUCCGAGGGGACCGUCCCCUCGGUAAUGGCGAAUGGGACCCA | 0.157
